Usually stoichiometry N stands for a count of units in the complex or per binding partner.

Six molecules from PMC10119312, “Structural insights into RNase J that plays an essential role in Mycobacterium tuberculosis RNA metabolism” (Nature Communications, 2023) can be followed below.

Data set [1] concerns the target T1, Mtb-RNase J 1-375/D85A (Mycobacterium tuberculosis H37Rv, UniProt P9WGZ9 1-375, D85A).
T1 sequence: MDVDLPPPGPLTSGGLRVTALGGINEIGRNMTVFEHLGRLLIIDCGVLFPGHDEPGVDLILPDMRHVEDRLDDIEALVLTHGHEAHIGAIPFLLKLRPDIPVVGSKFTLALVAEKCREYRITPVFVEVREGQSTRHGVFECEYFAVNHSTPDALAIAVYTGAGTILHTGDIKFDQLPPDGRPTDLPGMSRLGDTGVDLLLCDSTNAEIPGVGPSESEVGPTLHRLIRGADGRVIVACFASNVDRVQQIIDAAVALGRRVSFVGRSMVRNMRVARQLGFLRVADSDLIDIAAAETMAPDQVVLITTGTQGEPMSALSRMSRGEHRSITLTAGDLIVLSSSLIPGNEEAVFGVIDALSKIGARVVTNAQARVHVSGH
Nature of the data set: EMSA; 0.5 uM RNA; binding abolished. Conditions: protein: recombinant; tags: N-terminal 6xHis-SUMO, removed by ULP1; single strand. (In general: In EMSA bound probe runs differently from free probe, usually more slowly.)

Data set [2] deals with T2, Mtb-RNase J D85A (catalytically inactive) (Mycobacterium tuberculosis H37Rv, UniProt P9WGZ9 1-558, D85A).
T2 sequence: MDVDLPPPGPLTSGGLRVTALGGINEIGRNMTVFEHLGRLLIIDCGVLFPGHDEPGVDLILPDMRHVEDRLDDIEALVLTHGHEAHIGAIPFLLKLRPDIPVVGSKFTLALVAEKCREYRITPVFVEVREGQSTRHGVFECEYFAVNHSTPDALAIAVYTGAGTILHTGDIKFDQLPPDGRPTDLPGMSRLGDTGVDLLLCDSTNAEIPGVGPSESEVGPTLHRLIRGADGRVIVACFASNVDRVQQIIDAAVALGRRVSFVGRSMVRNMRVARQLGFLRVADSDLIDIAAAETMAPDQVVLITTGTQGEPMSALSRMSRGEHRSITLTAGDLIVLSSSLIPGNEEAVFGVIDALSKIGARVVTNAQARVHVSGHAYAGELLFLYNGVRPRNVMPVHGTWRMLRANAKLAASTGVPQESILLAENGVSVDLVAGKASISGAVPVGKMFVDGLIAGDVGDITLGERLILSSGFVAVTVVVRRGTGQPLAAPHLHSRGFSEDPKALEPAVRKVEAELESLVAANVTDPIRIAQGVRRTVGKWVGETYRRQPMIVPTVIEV
Description: EMSA. Conditions: protein: recombinant; tags: N-terminal 6xHis-SUMO, removed by ULP1; chain copies: 2; label: 5'-FAM; single strand.

Data set [3] deals with the molecule itself. Description: crystal structure.
Data set [4] deals with T2, Mtb-RNase J D85A (catalytically …). Description: X-ray crystal structure. Conditions: protein: recombinant; tags: N-terminal 6xHis-SUMO, removed by ULP1; chain copies: 2; single strand.
Data set [5] concerns the molecule itself. Description: SEC.

For UUCCGUUUAUUCAUACUUCA (ssRNA) [20-nt RNA (called poly(U) in legends; Methods print a mixed sequence)], in data set [1], the binding result was “no binding”.

Turning to AAAAAAAAA (ssRNA) [9-nt poly(A) RNA], the binding result in data set [2] is given as “binds”.

B1: Mtb-RNase J (D85A), catalytically inactive mutant (enzyme)
chain: MDVDLPPPGPLTSGGLRVTALGGINEIGRNMTVFEHLGRLLIIDCGVLFPGHDEPGVDLILPDMRHVEDRLDDIEALVLTHGHEAHIGAIPFLLKLRPDIPVVGSKFTLALVAEKCREYRITPVFVEVREGQSTRHGVFECEYFAVNHSTPDALAIAVYTGAGTILHTGDIKFDQLPPDGRPTDLPGMSRLGDTGVDLLLCDSTNAEIPGVGPSESEVGPTLHRLIRGADGRVIVACFASNVDRVQQIIDAAVALGRRVSFVGRSMVRNMRVARQLGFLRVADSDLIDIAAAETMAPDQVVLITTGTQGEPMSALSRMSRGEHRSITLTAGDLIVLSSSLIPGNEEAVFGVIDALSKIGARVVTNAQARVHVSGHAYAGELLFLYNGVRPRNVMPVHGTWRMLRANAKLAASTGVPQESILLAENGVSVDLVAGKASISGAVPVGKMFVDGLIAGDVGDITLGERLILSSGFVAVTVVVRRGTGQPLAAPHLHSRGFSEDPKALEPAVRKVEAELESLVAANVTDPIRIAQGVRRTVGKWVGETYRRQPMIVPTVIEV
notes: also called Mtb-RNase J D85A mutant; Mtb-RNase J/ssRNA (in complex with poly(A) ssRNA); not shown: 6xHis-sumo, N-terminal, cleaved
In the case of B1, in data set [3], the “stoichiometry N” value amounted to 2.

As to AAAAAAA (ssRNA) [7-nt poly(A) ssRNA], the binding result in data set [4] is given as “binds”.

B2: Mtb-RNase J truncated mutant 1-450 (domain or fragment)
chain: MDVDLPPPGPLTSGGLRVTALGGINEIGRNMTVFEHLGRLLIIDCGVLFPGHDEPGVDLILPDMRHVEDRLDDIEALVLTHGHEDHIGAIPFLLKLRPDIPVVGSKFTLALVAEKCREYRITPVFVEVREGQSTRHGVFECEYFAVNHSTPDALAIAVYTGAGTILHTGDIKFDQLPPDGRPTDLPGMSRLGDTGVDLLLCDSTNAEIPGVGPSESEVGPTLHRLIRGADGRVIVACFASNVDRVQQIIDAAVALGRRVSFVGRSMVRNMRVARQLGFLRVADSDLIDIAAAETMAPDQVVLITTGTQGEPMSALSRMSRGEHRSITLTAGDLIVLSSSLIPGNEEAVFGVIDALSKIGARVVTNAQARVHVSGHAYAGELLFLYNGVRPRNVMPVHGTWRMLRANAKLAASTGVPQESILLAENGVSVDLVAGKASISGAVPVGKMFVD
notes: also called truncated protein (1–450); not shown: 6xHis-sumo, N-terminal, cleaved
Consider B2, for which, in data set [5], the “stoichiometry N” value was 2.

B3: Mtb-RNase J truncated mutant 1-470 (domain or fragment)
chain: MDVDLPPPGPLTSGGLRVTALGGINEIGRNMTVFEHLGRLLIIDCGVLFPGHDEPGVDLILPDMRHVEDRLDDIEALVLTHGHEDHIGAIPFLLKLRPDIPVVGSKFTLALVAEKCREYRITPVFVEVREGQSTRHGVFECEYFAVNHSTPDALAIAVYTGAGTILHTGDIKFDQLPPDGRPTDLPGMSRLGDTGVDLLLCDSTNAEIPGVGPSESEVGPTLHRLIRGADGRVIVACFASNVDRVQQIIDAAVALGRRVSFVGRSMVRNMRVARQLGFLRVADSDLIDIAAAETMAPDQVVLITTGTQGEPMSALSRMSRGEHRSITLTAGDLIVLSSSLIPGNEEAVFGVIDALSKIGARVVTNAQARVHVSGHAYAGELLFLYNGVRPRNVMPVHGTWRMLRANAKLAASTGVPQESILLAENGVSVDLVAGKASISGAVPVGKMFVDGLIAGDVGDITLGERLILSS
notes: also called C-terminal truncation (1–470); C-terminal domain-depletion protein (1-470); not shown: 6xHis-sumo, N-terminal, cleaved
With B3, in data set [5], the “stoichiometry N” value amounted to 2.
